Assay results from article PMC10238501.
Several values for one entry are separate records, joined by “and”; a condition that tells them apart may be missing. Equal values may be shown once.

Experiments:
Assay in all cases: fluorescence anisotropy
[1] = target: Gal4LOV(SK22) I532E/A536E (/ Avena sativa (chimera)) (UniProt P04386); settings: dark; 20 mM HEPES pH 7.5, 50 mM NaCl, 50 ug/mL BSA, 5% Ficoll 400; 2 nM DNA; temperature not stated
[2] = target: Gal4LOV(SK22) C450V (/ Avena sativa (chimera)) (UniProt P04386); settings: dark; 20 mM HEPES pH 7.5, 50 mM NaCl, 50 ug/mL BSA, 5% Ficoll 400; 2 nM DNA; temperature not stated
[3] = target: Gal4LOV(SK22) (Gal4 DBD with AsLOV2 inserted between Ser22 and Lys23, no VP64) (/ Avena sativa (chimera)) (UniProt P04386); settings: 20 mM HEPES pH 7.5, 50 mM NaCl, 50 ug/mL BSA, 5% Ficoll 400, 2 nM DNA, temperature not stated
[4] = target: Gal4LOV(SK22) V416L (/ Avena sativa (chimera)) (UniProt P04386); settings: 20 mM HEPES pH 7.5, 50 mM NaCl, 50 ug/mL BSA, 5% Ficoll 400; 2 nM DNA; temperature not stated

## TCTTCGGAGGGCTGTCACCCGAATATA (double strand) [1xUAS 27-bp DNA]
[1]
  Kd: 13.4 nM
[2]
  Kd: 8.8 nM
[3]
  Kd: 4.2 nM
[3]; dark
  Kd: 6.4 nM
[4]
  Kd: 8.6 nM and 16.6 nM
